Experimental data taken from patent US20140335107A1 (published 2014).
Substitutions are numbered along the chain they refer to. Where no end group is shown, it is not given here.

Tests used:
[1] = target: T1, extracellular domain of human CD79b fused to Fc (huCD79becd-Fc) (human, UniProt P40259 29-159); test: Biacore (SPR), Fab against IgG on immobilized huCD79becd-Fc
T1 construct: expressed in CHO cells; also called huCD79b-Fc; not shown: Fc part of the fusion is not described
T1 sequence: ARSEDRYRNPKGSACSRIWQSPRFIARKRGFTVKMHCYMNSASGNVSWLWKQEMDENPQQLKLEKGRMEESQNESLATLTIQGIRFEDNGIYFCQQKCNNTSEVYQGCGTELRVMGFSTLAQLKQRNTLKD
Protocol: (§1) Binding of Fab and IgG variants of MA79b, the MA79b-grafted “humanized” antibody or MA79b-grafted “humanized” antibody variants to immobilized huCD79becd or huCD79b-Fc or the 16 amino acid peptide containing the epitope for MA79b was measured by surface plasma resonance. Affinity determinations were performed by surface plasmon resonance using a BIAcore™-2000. The antigen, huCD79becd or huCD79b-Fc was immobilized (approximately 50-200 RU) in 10 mM sodium acetate pH 4.8 on a CM5 sensor chip. Due to a large avidity effect, affinity measurements were sensitive to the amount of huCD79becd immobilized. For this reason, affinities, determined for samples run on different days, were normalized to MA79b that was run along side as a standard. In experiments that measured binding to the 16 amino acid peptide containing the epitope for MA79b ([…]) (SEQ ID NO: 16), the biotinylated peptide was captured (approximately 20 RU) on a streptavidin coated sensor chip. Purified MA79b-grafted “humanized” antibody variant (as Fab or IgG) (a 2-fold serial dilution of 0.5 to 1000 nM in PBST) was injected at a flow rate of 30 μL/min. Each sample was analyzed with 4-minute association and 10-minute disassociation. After each injection the chip was regenerated using 10 mM Glycine pH 1.7. […]

[2] = target: T2, human CD79b (human, UniProt P40259 29-229); test: Scatchard analysis, 125I-labeled IgG competed with unlabeled IgG on BJAB cells stably expressing cynomolgus CD79b and endogenous human CD79b
T2 construct: endogenous CD79b on B-cell lines (BJAB, BJAB-luciferase, DoHH-2); also called PRO36249; CD79b expressed on the surface of BJAB-luciferase cells
T2 sequence: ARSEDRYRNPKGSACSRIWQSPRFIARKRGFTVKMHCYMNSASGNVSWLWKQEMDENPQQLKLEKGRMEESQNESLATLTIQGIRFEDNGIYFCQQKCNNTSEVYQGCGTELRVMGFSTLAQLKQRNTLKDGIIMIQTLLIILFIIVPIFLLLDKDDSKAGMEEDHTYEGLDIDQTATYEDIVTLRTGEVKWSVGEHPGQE
Protocol: To further determine binding of the IgG variants having changes in HVR-L2 and HVR-H3 (huMA79b L2/H3), binding of iodinated IgG variants to BJAB cells expressing human CD79b and cynomologous CD79b was analyzed and Scatchard analysis was performed.
For Scatchard analysis, 0.5 nM I¹²⁵ labeled MA79b or huMA79b L2/H3 was competed against unlabeled MA79b or huMA79b L2/H3, respectively, ranging from 50 to 0.02 nM (12 step 1:2 serial dilution) in the presence of a transfected BJAB line stably expressing cynomologous-CD79b and endogenous human-CD79b. After a four hour incubation at 4° C., cells were washed and cell pellet counts were read by a gamma counter (1470 WIZARD Automatic Gamma Counter; Perkin Elmer, Walthem, Mass.). All points were done in triplicate and counted for 10 minutes. The average CPM was used for Kd calculation using the New Ligand (Genentech, South San Francisco, Calif.) program.

[3] = target: T2, human CD79b; test: FACS on DoHH-2 cells, Fab (data not shown)
Protocol: To further determine binding of the Fab variants of MA79b-grafted “humanized” antibody or antibody variants, binding of Fab and/or IgG variants to DoHH-2 cells were analyzed using FACS analysis. Further, binding of MA79b-grafted “humanized” antibody variants to BJAB-luciferase cells was analyzed using FACS analysis.
For FACS analysis of Fab variants of MA79b-grafted “humanized” antibody variants (MA79b-grafted “humanized” antibody (IgG version used as a control)), DoHH-2 cells (1×10⁶ in 100 μl volume) were first incubated with or without 1 μg of original mouse anti-CD79b monoclonal antibody (MA79b) for 30 minutes, before adding 1 μg of individual Fab variant (or control antibody).

[4] = target: T3, extracellular domain of human CD79b (huCD79becd) (human, UniProt P40259 29-159); test: phage selection, Fab on phage
T3 construct: expressed in CHO cells
T3 sequence: T1 sequence
Protocol: For phage selection, the extracellular domain of CD79b (huCD79becd) (2 μg/ml) was immobilized in PBS on MaxiSorp microtiter plates (Nunc) overnight at 4° C. Plates were blocked for at least 1 h using Casein Blocker (Pierce). Phage were harvested from the culture supernatant and suspended in PBS containing 0.5% BSA and 0.05% Tween 20 (PBSBT). Following addition of the phage library and phage selection for 2 h, microtiter wells were washed extensively with PBS containing 0.05% Tween 20 (PBST) to remove unbound phage and bound phage were eluted by incubating the wells with 100 mM HCl for 30 min. Selection stringency may be increased during successive rounds of selection by increasing the number of washes with PBST or by incubating with soluble huCD79becd for increasing time periods prior to elution.

[5] = target: T3, extracellular domain of human CD79b …; test: FACS analysis, IgG (data not shown)
[6] = target: T3, extracellular domain of human CD79b …; test: Biacore (SPR), IgG
Protocol: as §1

[7] = target: T1, extracellular domain of human CD79b …; test: Biacore (SPR), Fab
Protocol: as §1

[8] = target: T4, 16 amino acid peptide containing the epitope for MA79b (ARSEDRYRNPKGSACK) (human, also: biotinylated (site not given here)); test: Biacore (SPR), biotinylated peptide captured on streptavidin chip
T4 construct: synthesized; captured on a streptavidin coated sensor chip; also called biotinylated peptide
T4 peptide: ARSEDRYRNPKGSACK
Protocol: as §1

[9] = target: T2, human CD79b; test: Scatchard analysis on BJAB cells stably expressing cynomolgus CD79b and endogenous human CD79b
[10] = target: T3, extracellular domain of human CD79b …; test: Biacore (SPR), IgG (FIG. 12)
Protocol: as §1

B1: murine anti-CD79b monoclonal antibody MA79b (antibody, V domains shown)
VL: DIVLTQSPASLAVSLGQRATISCKASQSVDYDGDSFLNWYQQKPGQPPKLFIYAASNLESGIPARFSGSGSGTDFTLNIHPVEEEDAATYYCQQSNEDPLTFGAGTELELKR
VH: EVQLQQSGAELMKPGASVKISCKATGYTFSSYWIEWVKQRPGHGLEWIGEILPGGGDTNYNEIFKGKATFTADTSSNTAYMQLSSLTSEDSAVYYCTRRVPVYFDYWGQGTSVTVSS
notes: murine monoclonal IgG; 125I-labeled in the Scatchard assay; also called murine CD79b antibody
fold avidity component (dimeric IgG binding against monomeric Fab binding) [1]: 100 fold | Kd [2]: 0.63 nM

B2: huMA79b graft variant with HVR-H3 of SEQ ID NO: 94 (huMA79b H3-10), Fab (Fab, name in Kabat numbering, V domains shown)
VH: EVQLVESGGGLVQPGGSLRLSCAASGYTFSSYWIEWVRQAPGKGLEWVGEILPGGGDTNYNEIFKGRFTISADTSKNTAYLQMNSLRAEDTAVYYCTRRVPIRLDYWGQGTLVTVSS
VL: DIQMTQSPSSLSASVGDRVTITCKASQSVDYDGDSFLNWYQQKPGKAPKLLIYAASNLESGVPSRFSGSGSGTDFTLTISSLQPEDFATYYCQQSNEDPLTFGQGTKVEIKR
notes: selected as Fab on phage; also made as soluble Fab for FACS; also called H3-10 mutation
binding result [3]: binds | binding result [4]: binds

B3: MA79b-grafted humanized antibody (huMA79b graft), IgG (antibody, V domains shown)
VH: B2 VH with I102V, R103Y, L104F
VL: B2 VL
notes: expressed as an IgG
fold reduction of binding affinity [5]: > 100 fold | fold loss of binding affinity [6]: > 50 fold

B4: huMA79b graft variant with HVR-L2 of SEQ ID NO: 22 (huMA79b L2-2), Fab (Fab, name in Kabat numbering, V domains shown)
VH: B2 VH with I102V, R103Y, L104F
VL: B2 VL with S56R, N57K, E59G, S60R
notes: selected as Fab on phage; also made as soluble Fab for FACS and Biacore; also called L2-2 mutation
fold improvement in monomeric binding compared to MA79b (Fab) [7]: 5 fold

B5: MA79b-grafted humanized antibody variant L2/H3 (huMA79b L2/H3), IgG (antibody, name in Kabat numbering, V domains shown)
VH: B2 VH
VL: B2 VL with S56R, N57K, E59G, S60R
notes: L2-2 and H3-10 mutations combined on the huMA79b graft; 125I-labeled in the Scatchard assay
binding result [8]: binds | Kd [2]: 0.52 nM

B6: MA79b-grafted humanized antibody variant 32 (huMA79b.v32) (antibody, human IgG1, kappa, V domains shown)
VH: B2 VH with V48I, F68A, I70F
VL: B2 VL with M4L, D32S, L51F
notes: IgG
Kd [9]: 0.24 nM

B7: MA79b-grafted humanized antibody variant 17 (huMA79b.v17) (antibody, human IgG1, kappa, V domains shown)
VH: B2 VH with V48I, F68A, I70F, I102V, R103Y, L104F
VL: B2 VL with M4L
notes: IgG
binding result [10]: binds
